Experimental data published in article PMC10397247.
Like-named read-outs stand apart in the source and are kept apart here. Blank lines part the entries; values can stand above or below the binder they belong to.

Legend:
Test in all cases: two-hybrid library CCmax;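 further: natural log of median RNA to DNA barcode read ratio; higher means stronger binding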
[1] = target: T1, 4H1552-AA; details: mean of both orientations
T1 chain: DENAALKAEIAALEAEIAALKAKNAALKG

[2] = target: T2, 4H2151-AA; details: mean of both orientations
T2 chain: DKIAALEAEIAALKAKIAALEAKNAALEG

[3] = target: T3, 4H_APH2
T3 chain: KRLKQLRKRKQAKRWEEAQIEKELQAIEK

[4] = target: T4, 4H_APH4
T4 chain: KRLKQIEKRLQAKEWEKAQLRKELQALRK

[5] = target: T5, AP1-AA; details: mean of both orientations
T5 chain: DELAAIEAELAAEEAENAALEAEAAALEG

[6] = target: T6, AP4-AA; details: mean of both orientations
T6 chain: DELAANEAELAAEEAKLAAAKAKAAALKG

[7] = target: T7, AP5-AA; details: mean of both orientations
T7 chain: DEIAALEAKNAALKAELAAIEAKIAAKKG

[8] = target: T8, AP6-AA; details: mean of both orientations
T8 chain: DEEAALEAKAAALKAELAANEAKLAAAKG

[9] = target: T9, AP8-AA; details: mean of both orientations
T9 chain: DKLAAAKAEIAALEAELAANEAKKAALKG

[10] = target: T10, O6-AA; details: mean of both orientations
T10 chain: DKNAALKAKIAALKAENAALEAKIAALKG

[11] = target: T11, P11-AA; details: mean of both orientations
T11 chain: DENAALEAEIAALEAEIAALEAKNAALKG

[12] = target: T12, P12-AA; details: mean of both orientations
T12 chain: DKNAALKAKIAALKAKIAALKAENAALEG

[13] = target: T13, P2-AA; details: mean of both orientations
T13 chain: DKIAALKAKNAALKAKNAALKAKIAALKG

[14] = target: T14, P6-AA-1HAA-N; details: mean of both orientations
T14 chain: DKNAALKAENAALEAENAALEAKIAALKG

[15] = target: T15, P7-AA; details: mean of both orientations
T15 chain: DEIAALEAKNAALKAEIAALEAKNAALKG

[16] = target: T16, zCON9_A
T16 chain: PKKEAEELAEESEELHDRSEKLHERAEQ

[17] = target: T17, zCON9_B; details: mean of both orientations
T17 chain: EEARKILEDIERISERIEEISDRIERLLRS

[18] = target: T18, 4H1257-AA
T18 chain: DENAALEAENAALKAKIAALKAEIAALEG

[19] = target: T19, 4H1360-AA; details: mean of both orientations
T19 chain: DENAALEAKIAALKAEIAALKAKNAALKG

[20] = target: T20, 4H1454-AA; details: mean of both orientations
T20 chain: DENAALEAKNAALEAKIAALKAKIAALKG

[21] = target: T21, 4H1153-AA
T21 chain: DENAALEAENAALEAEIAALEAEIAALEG

[22] = target: T22, 4H335-AA; details: mean of both orientations
T22 chain: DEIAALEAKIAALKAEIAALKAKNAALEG

[23] = target: T23, 4H780-AA; details: mean of both orientations
T23 chain: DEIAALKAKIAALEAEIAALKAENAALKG

[24] = target: T24, O5-AA; details: mean of both orientations
T24 chain: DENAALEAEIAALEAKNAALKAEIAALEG

[25] = target: T25, 4H3493-AA
T25 chain: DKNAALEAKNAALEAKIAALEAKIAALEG

[26] = target: T26, 4H688-AA; details: mean of both orientations
T26 chain: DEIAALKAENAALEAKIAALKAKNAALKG

[27] = target: T27, 4H963-AA; details: mean of both orientations
T27 chain: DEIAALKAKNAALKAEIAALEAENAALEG

[28] = target: T28, 4H2442-AA; details: mean of both orientations
T28 chain: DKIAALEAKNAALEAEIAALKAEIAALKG

[29] = target: T29, 4H3354-AA; details: mean of both orientations
T29 chain: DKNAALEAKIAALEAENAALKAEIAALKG

[30] = target: T30, 4H3855-AA; details: mean of both orientations
T30 chain: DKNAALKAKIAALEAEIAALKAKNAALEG

[31] = target: T31, 4H4001-AA; details: mean of both orientations
T31 chain: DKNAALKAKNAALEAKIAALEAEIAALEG

[32] = target: T32, 4H687-AA; details: mean of both orientations
T32 chain: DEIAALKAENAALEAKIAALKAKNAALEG

[33] = target: T33, 4H883-AA
T33 chain: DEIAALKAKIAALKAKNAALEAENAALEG

[34] = target: T34, 4H918-AA; details: mean of both orientations
T34 chain: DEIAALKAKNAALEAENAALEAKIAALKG

[35] = target: T35, 4H953-AA; details: mean of both orientations
T35 chain: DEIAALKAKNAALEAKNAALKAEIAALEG

[36] = target: T36, 4H1392-AA; details: mean of both orientations
T36 chain: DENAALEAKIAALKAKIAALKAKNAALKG

[37] = target: T37, 4H2622-AA; details: mean of both orientations
T37 chain: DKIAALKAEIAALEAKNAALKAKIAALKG

[38] = target: T38, 4H2705-AA; details: mean of both orientations
T38 chain: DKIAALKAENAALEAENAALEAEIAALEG

[39] = target: T39, 4H3587-AA; details: mean of both orientations
T39 chain: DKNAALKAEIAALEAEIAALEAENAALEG

[40] = target: T40, 4H3625-AA; details: mean of both orientations
T40 chain: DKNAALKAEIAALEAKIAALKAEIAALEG

[41] = target: T41, 4H3905-AA; details: mean of both orientations
T41 chain: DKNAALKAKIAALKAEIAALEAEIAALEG

[42] = target: T42, 4H4038-AA; details: mean of both orientations
T42 chain: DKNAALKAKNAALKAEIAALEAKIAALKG

[43] = target: T43, 4H510-AA; details: mean of both orientations
T43 chain: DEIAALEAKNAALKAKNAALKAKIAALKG

Binder: DENAALEAKIAALKAKNAALKAEIAALEG [4H1401-AA]
interaction score [1]: -0.741
interaction score [2]: -1.5
interaction score [3]: -2.35
interaction score [4]: -1.85
interaction score [5]: -1.76
interaction score [6]: -1.22
interaction score [7]: -0.362
interaction score [8]: -1.73
interaction score [9]: -0.198
interaction score [10]: 1.98
interaction score [11]: 0.388
interaction score [12]: -1.92
interaction score [13]: -1.76
interaction score [14]: 1.57
interaction score [15]: -1.39
interaction score [16]: -1.95
interaction score [17]: -0.316

Binder: DENAALEAENAALEAEIAALEAEIAALEG [4H1153-AA]
interaction score [21]: -1.43
interaction score [1]: -0.818
interaction score [2]: -1.21
interaction score [22]: -0.418
interaction score [23]: -1.44

Binder: DKNAALKAEIAALEAENAALEAKIAALKG [4H3606-AA]
interaction score [3]: -2.3
interaction score [4]: -1.64
interaction score [5]: -1.62
interaction score [6]: -1.63
interaction score [7]: 2.26
interaction score [8]: -0.593
interaction score [9]: -1.43
interaction score [24]: 2.23
interaction score [11]: -1.15
interaction score [12]: -0.654
interaction score [13]: 0.917
interaction score [15]: 1.24
interaction score [16]: -1.36
interaction score [17]: -0.854

Binder: DENAALKAEIAALKAENAALKAEIAALKG [4H1626-AA]
interaction score ([25]; mean of both orientations): -1.45
interaction score [26]: -1.19
interaction score [27]: -1.46

Binder: DEIAALEAENAALEAKIAALKAENAALEG [4H171-AA]
interaction score [24]: -0.0194
interaction score [10]: -0.729

Binder: DKIAALEAEIAALKAKNAALEAKIAALEG [4H2165-AA]
interaction score [22]: -1.5
interaction score [23]: -1.4

Binder: DENAALEAEIAALKAKNAALEAKIAALKG [4H1142-AA]
interaction score ([21]; mean of both orientations): -1.39

Binder: DENAALEAKIAALKAEIAALEAKIAALKG [4H1350-AA]
interaction score [36]: -0.186
interaction score [37]: 1.12
interaction score [38]: -1.8
interaction score [39]: 1.39
interaction score [40]: 1.97
interaction score [41]: 1.9
interaction score [42]: 0.909
interaction score [43]: -1.17

Results, then the binder that gave them:

interaction score ([18]; mean of both orientations): 0.616
interaction score [19]: 0.702
interaction score [20]: 0.729
Binder: DENAALEAEIAALEAKIAALEAKNAALKG [4H1064-AA]

interaction score [28]: -1.87
interaction score [29]: -1.37
interaction score [30]: -1.94
interaction score [31]: -1.9
interaction score [32]: -1.51
interaction score ([33]; mean of both orientations): -1.57
interaction score [34]: -1
interaction score [35]: -1.52
Binder: DENAALKAKIAALEAKNAALEAKIAALEG [4H1845-AA]

interaction score [25]: -1.67
interaction score [26]: 0.32
interaction score [27]: -1.65
Binder: DEIAALEAENAALKAKNAALKAEIAALEG [4H249-AA]

interaction score [36]: -0.355
interaction score [37]: 1.24
interaction score [38]: -1.8
interaction score [39]: 1.58
interaction score [40]: 1.76
interaction score [41]: 2.31
interaction score [42]: 1.56
interaction score [43]: -1.54
interaction score [14]: -0.2
Binder: DENAALEAKIAALKAKIAALKAEIAALEG [4H1385-AA]

interaction score [18]: 0.41
interaction score [19]: -0.666
interaction score [20]: -0.555
interaction score [28]: -1.57
interaction score [29]: -1.6
interaction score [30]: -0.401
interaction score [31]: -0.973
interaction score [32]: -1.24
interaction score [33]: -1.67
interaction score [34]: -1.05
interaction score [35]: -1.45
Binder: DENAALEAENAALKAKIAALKAEIAALEG [4H1257-AA]
